Laboratory results as given in the supplement of paper PMC12764529.
± gives the half width of the 95% confidence interval.

Columns and labels:
[1] = folding stability dG unfold from chymotrypsin proteolysis; higher = more stable
Method in brief: (§1)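 How resistant each design was to proteolysis was captured as K50, inferred by Bayesian fitting of sequencing counts. Unfolding free energy was then derived relative to a sequence-predicted unfolded-state K50 and a shared folded-state K50, per protease or combined. Digestion used trypsin and chymotrypsin at 11 threefold-diluted concentrations plus a no-protease condition, on mini-proteins under 80 residues without cysteine in a PA-tagged cDNA display construct. Designs were kept only when AlphaFold2 dimer inter-PAE was above 15.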

[2] = folding stability dG unfold from trypsin proteolysis; higher = more stable
Method in brief: as §1

[3] = folding stability dG unfold (combined trypsin and chymotrypsin); higher = more stable
Method in brief: as §1

| Sequence | folding stability dG unfold [1] [kcal/mol] | folding stability dG unfold [2] [kcal/mol] | folding stability dG unfold [3] [kcal/mol] |
| --- | --- | --- | --- |
| SAGGSAGGSAGPPIMVMVHKHDKEDGKPKIDESIPIDIPPDQQDKLKEEANERGYHVHPFSAGGSAGGSAGG [r17_18_TrROS] | 0.0379 ± 0.11 | 0.207 ± 0.054 | 0.158 ± 0.091 |
| SAGGSAGGSAGPPNKPVYVRVRIQMPNGKKKTFWFKDVEQIEKNLKEEFGIRDIEIEPIKSAGGSAGGSAGG [r17_508_TrROS] | 1.71 ± 0.026 | 1.62 ± 0.028 | 1.67 ± 0.046 |
| SAGGSAGGSAGPTLTLELLFRNEDGSLYAVRVRYDLDTDKVEIEVRRLPPAEPVTVTVEDSAGGSAGGSAGG [r11_657_TrROS_Hall] | 4.26 ± 0.052 | 2.8 ± 0.12 | 3.7 ± 0.17 |
| SAGGSAGGSAGPTVASVEVLEYDPETGYLTVRIYIPDNGEWVDVKAPVGTAEEIVKAAEKSAGGSAGGSAGG [r17_111_TrMRF] | 1.49 ± 0.048 | 0.463 ± 0.077 | 1.16 ± 0.14 |
| SAGGSAGGSAGPVKLTLEVPEEEAEELAEALREAGYEVEIERDEETKRLRVTITVDPEALSAGGSAGGSAGG [r11_1043_TrROS_Hall] | 2.2 ± 0.056 | 1.78 ± 0.095 | 2.01 ± 0.12 |
| SAGGSAGGSAGPVKTVEVEIPGMSEEELLALLPPGVKRVEIEREEVEPGRVRLRIKVYEESAGGSAGGSAGG [r11_1002_TrROS_Hall] | 1.3 ± 0.051 | 0.307 ± 0.062 | 0.977 ± 0.059 |
| SAGGSAGGSAGPVTITIKVPKEDEEEIEALARELAAALPPPEGAKVTVERNEDGTITITLSAGGSAGGSAGG [r17_324_TrROS_Hall] | 1.6 ± 0.06 | 1.56 ± 0.15 | 1.62 ± 0.12 |
| SAGGSAGGSAGPVVVEVDGKLVIFNPEDGTVTVFEFDKDGKLVEEKEFTVPPEVTLVEEDSAGGSAGGSAGG [r17_385_TrROS_Hall] | 1.06 ± 0.039 | 1.42 ± 0.11 | 1.27 ± 0.13 |
| SAGGSAGGSAGRRLVLEFDDESLAVPAAEFLERVLGLELVSIERVPDGERERVLVVLDFPSAGGSAGGSAGG [r11_232_TrMRF] | 2.45 ± 0.05 | 1.78 ± 0.036 | 2.21 ± 0.09 |
| SAGGSAGGSAGSEIAEAIKKALEEAGVKEVKIEKVGPEPNVFRITFENGETIEITLPEDLSAGGSAGGSAGG [r11_765_TrROS_Hall] | 2.19 ± 0.037 | 2.28 ± 0.15 | 2.21 ± 0.1 |
| SAGGSAGGSAGSGTMFDFGSASVETLEEDPNGRVLVKVTLPDSEYLLEIVKGELVKIEPRSAGGSAGGSAGG [r17_396_JUSTAS] | 0.858 ± 0.059 | -0.274 ± 0.28 | 0.569 ± 0.12 |
| SAGGSAGGSAGSIGFDSLEEAEKAIEEARRNNVPLTIELRLPDGSTLRIPVDLEIPEDDPSAGGSAGGSAGG [r17_462_TrMRF] | 1.19 ± 0.037 | 1.7 ± 0.056 | 1.46 ± 0.12 |
| SAGGSAGGSAGSLELEFEFPKDTPLDKIIEELKKLIPEKDPKIEILKVEEKEGGLWIKARVSSAGGSAGGSA [r18_360_TrMRF] | 3.11 ± 0.042 | 3.55 ± 0.085 | 3.26 ± 0.05 |
| SAGGSAGGSAGSLLTETSESVINDTKITHVLEIDPSSGALRLILETKHPDPGIVTVELLPSAGGSAGGSAGG [r17_242_JUSTAS] | 0.857 ± 0.061 | 0.943 ± 0.023 | 0.885 ± 0.072 |
| SAGGSAGGSAGSMEPVKTEELESGEVRTVSLLPDGTIKEELIKIEGEGETVETKVVPLEESAGGSAGGSAGG [r11_699_JUSTAS] | 1.68 ± 0.1 | 0.745 ± 0.065 | 1.48 ± 0.2 |
| SAGGSAGGSAGSMIEEAVEAAKASGDPDVTVDLETPEGRVTVTVTVDPATGTVTVTTSPESAGGSAGGSAGG [r17_475_JUSTAS] | 2.21 ± 0.077 | 1.21 ± 0.033 | 1.86 ± 0.091 |
| SAGGSAGGSAGSMLLSLSIASVETTETTEIDPETGEKRKVTTTTITIPGTGQTITLTETVESAGGSAGGSAG [r3_424_JUSTAS] | 0.532 ± 0.07 | 1.83 ± 0.058 | 1.28 ± 0.065 |
| SAGGSAGGSAGSMSVSVTKLPNGDYVVTTTTSETSTSTTGSTPVTTTTTTTTVTTLPSSSSAGGSAGGSAGG [r17_432_JUSTAS] | 0.775 ± 0.023 | 2.21 ± 0.048 | 1.57 ± 0.046 |
